Where a chain is given by its changes, count along the chain named.

Data set [1] addresses Salmonella enterica serovar Montevideo DpdB, His6-tagged (Salmonella enterica subsp. enterica serotype Montevideo). Put plainly: SEC-SAXS + SEC-MALS.
Data set [2] concerns the target Salmonella enterica serovar Montevideo DpdB, His6 tag removed (Salmonella enterica subsp. enterica serotype Montevideo). Put plainly: SEC.
For a further data set, the target named is T1, DpdA F265A (Salmonella enterica subsp. enterica …, UniProt P0DW33 1-416, F265A).
T1 sequence: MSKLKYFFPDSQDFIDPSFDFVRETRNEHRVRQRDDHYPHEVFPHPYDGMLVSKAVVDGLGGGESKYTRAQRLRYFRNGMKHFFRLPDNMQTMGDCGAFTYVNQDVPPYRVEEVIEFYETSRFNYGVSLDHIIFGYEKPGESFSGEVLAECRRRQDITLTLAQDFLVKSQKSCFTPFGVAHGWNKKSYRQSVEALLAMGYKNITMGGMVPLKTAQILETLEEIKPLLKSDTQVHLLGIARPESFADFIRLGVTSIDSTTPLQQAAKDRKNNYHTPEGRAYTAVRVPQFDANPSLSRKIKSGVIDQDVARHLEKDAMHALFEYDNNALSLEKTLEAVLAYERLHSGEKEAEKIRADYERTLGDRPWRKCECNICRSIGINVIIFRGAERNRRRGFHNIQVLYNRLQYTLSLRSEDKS
Put plainly: EMSA.

The target in a further data set is T2, DpdA wild type (Salmonella enterica subsp. enterica …, UniProt P0DW33 1-416).
T2 sequence: T1 sequence with A265F
Put plainly: EMSA.

A further data set addresses T3, DpdA D95A (Salmonella enterica subsp. enterica …, UniProt P0DW33 1-416, D95A).
T3 sequence: T1 sequence with D95A, A265F
Briefly: SEC-SAXS/MALS.

For the molecule “Salmonella enterica serovar Montevideo DpdB, His6-tagged (enzyme)”, the stoichiometry N in data set [1] was determined as 2. In data set [2], “Salmonella enterica serovar Montevideo DpdB, His6 tag removed (enzyme)” yielded a stoichiometry N of 2.

B1: 28 bp DNA duplex spiked with 1% 6-FAM-labeled strand (dsDNA)
DNA 1: GGGGTTTTCGCCAGCTGGCGTTTTGGGG
DNA 2: CCCCAAAACGCCAGCTGGCGAAAACCCC
Regarding B1, the Kd with DpdA F265A was found to be 2300 ± 100 nM; in the data set with DpdA wild type, 3400 ± 200 nM.

B2: 28 bp DNA duplex (28bpDuplexF/R) (dsDNA)
DNA 1: GGGGTTTTCGCCAGCTGGCGTTTTGGGG
DNA 2: CCCCAAAACGCCAGCTGGCGAAAACCCC
B2: the binding result in the data set with DpdA D95A was “binds”.

The record behind these values is paper PMC10164549.
